This is an account of results in patent US20170137467A1 (CHROMOTEK, published 2017).

Holding throughout (experiment): library pulldown, LC-MS of supernatant; ratio vs GFP-Nb control (0=captured, 1=not captured)
Test [1] concerns the target T1, BC2T R3V (human).
T1 construct: position 3 library (BC2TR3X), row V
T1 peptide: Ac-PDVKAAVSHWQQ-NH2
From the text: (§1) In total, 12 different BC2T libraries displaying all 20 proteinogenic amino acids in one single position of the peptide were used in immunoprecipitation experiments. […] The direct comparison with the GFP-Nb made it possible to determine the quantitative degree of peptide capture without the need of labeled standards. […] The more peptide was captured the more the value approximates 0. It was not possible to discriminate between isoleucine (I) and leucine (L) peptide versions since these peptides are isobaric.
(§2) To investigate the binding specificity of the BC2T and derived mutants peptide libraries for each amino acid position of the sequence […] (SEQ ID NO:4) were synthesized with acetyl and amide groups located at the N-termini or C-termini respectively (Intavis). […] Incubations were performed in 300 μl PBS/0.01% CHAPS for 1 h on a HulaMixer (Life Technologies). Subsequent to a centrifugation step 10 μl supernatant were analyzed in a LC-MS procedure. Peptides were separated using an UltiMate3000 RSLCnano System (Thermo Scientific), composed of a C18 PepMap100μ-Precolumn (300 μm×5 mm; particle size: 5 μm; pore size: 100 Å—Thermo Scientific) and a C18 analytical column (Acclaim Rapid Separation LC (RSLC) Column: 150 mm×5 mm; particle size: 2.2 μm; pore size: 100 Å—Thermo Scientific). A step gradient was applied starting at 8% and ending after 20 min at 30% eluent B (80% acetonitrile, 20% H₂O, 0.1% formic acid).

Test [2] has as its target T2, BC2T A5G (human).
T2 construct: position 5 library, row G
T2 peptide: Ac-PDRKGAVSHWQQ-NH2
Text: as §1, §2

Test [3] has as its target T3, BC2T A6G (human).
T3 construct: position 6 library (BC2TA6X), row G
T3 peptide: Ac-PDRKAGVSHWQQ-NH2
Text: as §1, §2

Test [4] deals with T4, BC2T D2M (human).
T4 construct: position 2 library, row M
T4 peptide: Ac-PMRKAAVSHWQQ-NH2
Text: as §1, §2

Test [5] concerns the target T5, BC2T A6M (human).
T5 construct: position 6 library (BC2TA6X), row M
T5 peptide: Ac-PDRKAMVSHWQQ-NH2
Text: as §1, §2

Test [6] has as its target T6, BC2T R3M (human).
T6 construct: position 3 library (BC2TR3X), row M
T6 peptide: Ac-PDMKAAVSHWQQ-NH2
Text: as §1, §2

The target of test [7] is T7, BC2T D2A (human).
T7 construct: position 2 library, row A
T7 peptide: Ac-PARKAAVSHWQQ-NH2
Text: as §1, §2

In test [8] the target is T8, BC2T V7(I/L2).
T8 construct: position 7 library, row I/L2
Text: as §1, §2

Test [9] has as its target T9, BC2T R3(I/L1).
T9 construct: position 3 library (BC2TR3X), row I/L1
Text: as §1, §2

Test [10] deals with T10, BC2T P1V (human).
T10 construct: position 1 library, row V
T10 peptide: Ac-VDRKAAVSHWQQ-NH2
Text: as §1, §2

Test [11] has as its target T11, BC2T P1(I/L2).
T11 construct: position 1 library, row I/L2
Text: as §1, §2

Test [12] addresses T12, BC2T V7G (human).
T12 construct: position 7 library, row G
T12 peptide: Ac-PDRKAAGSHWQQ-NH2
Text: as §1, §2

Test [13] concerns the target T13, BC2T K4G (human).
T13 construct: position 4 library, row G
T13 peptide: Ac-PDRGAAVSHWQQ-NH2
Text: as §1, §2

The target in test [14] is T14, BC2T P1(I/L1).
T14 construct: position 1 library, row I/L1
Text: as §1, §2

In test [15] the target is T15, BC2T P1A (human).
T15 construct: position 1 library, row A
T15 peptide: Ac-ADRKAAVSHWQQ-NH2
Text: as §1, §2

The target of test [16] is T16, BC2T D2(I/L2).
T16 construct: position 2 library, row I/L2
Text: as §1, §2

The target of test [17] is T17, BC2T A6(I/L1).
T17 construct: position 6 library (BC2TA6X), row I/L1
Text: as §1, §2

Test [18] has as its target T18, BC2T R3A (human).
T18 construct: position 3 library (BC2TR3X), row A
T18 peptide: Ac-PDAKAAVSHWQQ-NH2
Text: as §1, §2

Test [19] addresses T19, BC2T V7A (human).
T19 construct: position 7 library, row A
T19 peptide: Ac-PDRKAAASHWQQ-NH2
Text: as §1, §2

Test [20] deals with T20, BC2T P1M (human).
T20 construct: position 1 library, row M
T20 peptide: Ac-MDRKAAVSHWQQ-NH2
Text: as §1, §2

In test [21] the target is T21, BC2T P1G (human).
T21 construct: position 1 library, row G
T21 peptide: Ac-GDRKAAVSHWQQ-NH2
Text: as §1, §2

Test [22] addresses T22, BC2T A5V (human).
T22 construct: position 5 library, row V
T22 peptide: Ac-PDRKVAVSHWQQ-NH2
Text: as §1, §2

For test [23], the target named is T23, BC2T K4V (human).
T23 construct: position 4 library, row V
T23 peptide: Ac-PDRVAAVSHWQQ-NH2
Text: as §1, §2

Numbering of substitutions follows the chain as printed.

B1: BC2 nanobody (BC2-Nb) (VHH)
VHH: QVQLVESGGGLVQPGGSLTLSCTASGFTLDHYDIGWFRQAPGKEREGVSCINNSDDDTYYADSVKGRFTIFMDNAKDTVYLQMNSLKPEDTAIYYCAEARGCKRGRYEYDFWGQGTQVTVSS
notes: immobilised on agarose/sepharose beads in this assay; also called BC2 nanotrap (immobilised form); not shown: C-terminal 6xHis-tag added by pHEN6 vector
Take B1: the ratio in test [1] is 0.3; in test [2], 0.3; in test [3], 0.7; in test [4], 0.1; in test [5] it was 1; in test [6] it was 0.7. Moreover, the ratio was found to be 0.2 in test [7]; 0.2 in test [8]; 0.5 in [9]; 0.2 in test [10]; 0.3 in test [11]; 0.7 in [12]. In addition, the ratio in test [13] was determined as 0.6; in [14], 0.4; in test [15], 0.1; in [16], 0.2; in [17] it was 0.7; in test [18] it was 0.7. Besides, the ratio is 0.4 in [19]; 0.2 in test [20]; 0.4 in test [21]; 0.1 in test [22]; 0.1 in [23].

B2: BC2-NbR106S (VHH)
VHH: B1 VHH with R106S
notes: immobilised on beads in this assay; not shown: C-terminal 6xHis-tag added by pHEN6 vector
As to B2, the ratio came to 0.7 in test [1]; 0.5 in [2]; 0.9 in [3]; 0.2 in [4]; 0.9 in test [5]; 0.9 in test [6]. In addition, the ratio in test [7] was 0.4; in test [8], 0.4; in test [9], 0.9; in test [10] it was 0.4; in test [11], 0.6; in [12], 0.8. The ratio worked out at 0.9 in test [13]; 0.7 in [14]; 0.3 in [15]; 0.3 in [16]; 0.8 in test [17]; 0.9 in [18]. In addition, the ratio in [19] was 0.7; in test [20], 0.5; in test [21], 0.6; in [22], 0.2; in test [23], 0.2.

B3: BC2-NbR106E (VHH)
VHH: B1 VHH with R106E
notes: as for B2
Regarding B3, the ratio in test [1] amounted to 0.5; in test [2], 0.4; in test [3], 0.8; in [4] it was 0.1; in [5], 1; in test [6], 0.9. For the same molecule, the ratio in [7] came to 0.2; in [8], 0.2; in test [9], 0.9; in test [10], 0.3; in test [11], 0.5; in [12] it was 0.7. Also, the ratio was determined as 0.9 in test [13]; 0.6 in test [14]; 0.2 in [15]; 0.2 in test [16]; 0.7 in test [17]; 1 in test [18]. Besides, the ratio in [19] amounted to 0.5; in [20], 0.4; in test [21] it was 0.5; in test [22], 0.1; in [23], 0.1.
